Laboratory results taken from patent publication US8846873B2, “Antibodies directed to GPNMB and uses thereof” (Celldex Therapeutics, Inc., priority 2004, dated 2014).

How the values were obtained:
GPNMB [1] = biological target: T1, GPNMB (Homo sapiens, UniProt Q14956); experiment: BiaCore 2000 biosensor binding of hybridoma supernatant mAb to GPNMB; settings: mAb captured on protein A, GPNMB 880 nM, 1:1 kinetic model
T1 construct: made in house; host or cells: HEK 293
T1 sequence (Q14956 23-492): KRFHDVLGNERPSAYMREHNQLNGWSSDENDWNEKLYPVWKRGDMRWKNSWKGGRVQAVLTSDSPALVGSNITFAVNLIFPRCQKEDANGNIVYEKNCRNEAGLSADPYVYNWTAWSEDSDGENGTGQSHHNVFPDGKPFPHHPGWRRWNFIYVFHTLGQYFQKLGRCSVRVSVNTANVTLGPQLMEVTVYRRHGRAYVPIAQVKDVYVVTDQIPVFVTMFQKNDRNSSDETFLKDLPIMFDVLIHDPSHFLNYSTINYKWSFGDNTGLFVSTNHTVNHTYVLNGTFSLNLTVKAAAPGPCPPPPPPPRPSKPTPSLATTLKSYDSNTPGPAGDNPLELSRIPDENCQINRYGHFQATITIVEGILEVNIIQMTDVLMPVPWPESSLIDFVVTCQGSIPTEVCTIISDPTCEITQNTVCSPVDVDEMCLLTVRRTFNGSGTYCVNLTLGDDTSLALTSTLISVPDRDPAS
Protocol: Certain Hybridoma cell supernatants (29) were analyzed for binding to GPNMB by BiaCore® 2000 biosensor equipped with a research-grade CMS sensor chip. A 1:25 dilution of cell supernatant was passed over a protein A surface for 5 min followed by washing the surface for 10 mins. Subsequently, GPNMB was injected for 90 sec. over the surface at a concentration of 880 nM followed by dissociation. Double-referenced binding data were obtained by subtracting the signal from a control flow cell and subtracting the baseline drift of a buffer injected just prior to the antigen injection. GPNMB binding ddata for each mAb was normalized for the amount of mAb captured on each surface. Normalized, drift corrected responses were also measured. The sensorgrams were fit to a simple 1:1 kinetic model.

GPNMB [2] = biological target: T1, GPNMB; experiment: ELISA of hybridoma supernatants for binding to GPNMB
Protocol: After 14 days of culture, hybridoma supernatants were screened for GPNMB specific monoclonal antibodies. In the Primary screen, the ELISA plates (Fisher, Cat. No. 12-565-136) were coated with 50 μL/well of GPNMB (1 μg/mL) in Coating Buffer (0.1 M Carbonate Buffer, pH 9.6, NaHCO3 8.4 g/L), then incubated at 4° C. overnight. After incubation, the plates were washed with Washing Buffer (0.05% Tween 20 in PBS) three times. 200 μL/well Blocking Buffer (0.5% BSA, 0.1% Tween 20, 0.01% Thimerosal in 1×PBS) were added and the plates were incubated at room temperature for 1 h. After incubation, the plates were washed with Washing Buffer three times. Aliquots (50 μL/well) of hybridoma supernatants and positive and negative controls were added, and the plates were incubated at room temperature for 2 h. The positive control used throughout was serum from the relevant GPNMB immunized XenoMouse® mouse and the negative control was serum from the KLH-immunized relevant strain of XenoMouse® mouse. After incubation, the plates were washed three times with Washing Buffer. 100 μL/well of detection antibody goat anti-huIgGfc-HRP (Caltag, Cat. No. H10507, using concentration was 1:2000 dilution) was added and the plates were incubated at room temperature for 1 hour. After incubation, the plates were washed three times with Washing Buffer. 100 μl/well of TMB (BioFX Lab. Cat. No. TMSK-0100-01) was added, and the plates were allowed to develop for about 10 minutes (until negative control wells barely started to show color). 50 μl/well stop solution (TMB Stop Solution (BioFX Lab. Cat. No. STPR-0100-01) was then added and the plates were read on an ELISA plate reader at a wavelength of 450 nm.
Hybridoma supernatants were screened for binding to GPNMB by ELISA as described above in Example 2.

TK10 cells = experiment: FACS anti-GPNMB staining; type: binding, human; settings: primary antibody 1 μg/mL
GPNMB [3] = biological target: T1, GPNMB; experiment: Binning of antibodies (Luminex competitive binding); settings: three bins of six anti-GPNMB antibodies
Protocol: Certain antibodies, described herein were binned in accordance with the protocol described in U.S. Patent Application Publication No. 20030157730. MxhIgG conjugated beads are prepared for coupling to primary antibody. The volume of supernatant needed is calculated using the following formula: (n+10)×50 μL (where n=total number of samples on plate). Where the concentration is known, 0.5 μg/mL is used. Bead stock is gently vortexed, then diluted in supernatant to a concentration of 2500 of each bead per well or 0.5×10^5/mL and incubated on a shaker in the dark at RT overnight, or 2 hours if at a known concentration of […]. Following aspiration, 50 μL of each bead is added to each well of filter plate, then washed once by adding 100 μL/well wash buffer and aspirating. Antigen and controls are added to filter plate 50 μL/well then covered and allowed to incubate in the dark for 1 hour on shaker. Following a wash step, a secondary unknown antibody is added at 50 μL/well using the same dilution (or concentration if known) as is used for the primary antibody. The plates are then incubated in the dark for 2 hours at RT on shaker followed by a wash step. Next, 50 μL/well biotinylated mxhIgG diluted 1:500 is added and allowed to incubate in the dark for 1 hour on shaker at RT. […]

[4] = test system: normal and tumor human tissue microarrays; experiment: GPNMB immunohistochemistry (IHC) analysis
Protocol: Anti-GPNMB monoclonal antibodies were evaluated for reactivity with frozen and fixed tissue specimens. Tissue sections (5 μm) were cut from formalin fixed and paraffin embedded tissue samples and were rehydrated through incubations in xylene and a graded ethanol series terminating in PBS. Endogenous peroxidase activity was quenched in a 3% solution of hydrogen peroxide in methanol.
Tissue sections were blocked in blocking buffer (5% BSA (Sigma), 1% goat serum (Jackson Immunolabs, West Grove, Pa.) in PBS) for 1 hour. Primary and secondary antibodies were precomplexed in 5% BSA and 1% goat serum in PBS for 1 hour at 37° C. at a molar ratio of approximately 10:1 of anti-GPNMB or control IgG to secondary biotinylated goat anti-human IgG (Jackson Immunolabs). Complexes were blocked with a 1:2000 dilution of human serum and incubated again for 1 hour at 37° C. Tissue sections were incubated with anti-GPNMB antibody or isotype control antibody complexes diluted in blocking buffer for 1 hour. Sections were washed in 3 changes of PBS for 5 to 10 minutes each and incubated with a 1:200 dilution of streptavidin conjugated horseradish peroxidase (Jackson Immunolabs) in blocking buffer for 30 minutes and then washed as before. Antibody was detected using DAB reagent (Vector labs). […]

B1: Mab1.7.1: human anti-GPNMB antibody; VH SEQ ID NO: 56, VL SEQ ID NO: 65 (antibody, listed as Homo sapiens, V domains shown)
VH: QVQLQESGPGLVKPSQTLSLTCTVSGGSISSANYYWTWIRQHPGKGLEWIGYIYYSGSTYCNPSLKSRVIISVDTSKNQFSLKLSSVTAADTAVYYCARGYNWNYFDYWGQGTLVTVSSA
VL: DIVMTQSPATLSVSPGERATLSCRASQSVSSNLAWYQERPGQAPRLLIYGASTRATGIPARFSGSGSGTEFTLTISSLQSEDFAVYYCQQYNKWPPWTFGQGTKVEIER
Kd (GPNMB [1]): 122 nM | ka (GPNMB [1]): 11842 M⁻¹ s⁻¹ | kd (GPNMB [1]): 0.00144 s⁻¹

B2: Mab1.2.2: human anti-GPNMB antibody; VH SEQ ID NO: 38, VL SEQ ID NO: 47 (antibody, listed as Homo sapiens, V domains shown)
VH: ITLKESGPTLVKPTQTLTLTCTFSGFSLSAGGVGVGWIRQPPGKALEWLALIYWNDDKRYSPSLRSRLTITKDTSKNQVVLTITNMDPVDTATYYCAHSHYDYDWGSYFDYWGQGTLVTVSSA
VL: DIVMTQTPLSLPVTPGEPASISCRSSQSLLDSDDGNTYLDWYLQKPGQSPQLLIYTLSYRASGVPDRFSGSGSGTDFTLNISRVEAEDVGVYYCMQRIEFPITFGQGTRLEIKR
Kd (GPNMB [1]): 96 nM | ka (GPNMB [1]): 9257 M⁻¹ s⁻¹ | kd (GPNMB [1]): 0.00089 s⁻¹ | Avg OD (GPNMB [2]; 12.3 ng/mL): 0.049 | Avg OD (GPNMB [2]; 37 ng/mL): 0.094 | Avg OD (GPNMB [2]; 111 ng/mL): 0.199 | Avg OD (GPNMB [2]; 333 ng/mL): 0.356 | Avg OD (GPNMB [2]; 1 μg/mL): 0.499 | Avg OD (GPNMB [2]; 3 μg/mL): 0.763 | Geo Mean Ratio of anti-GPNMB Staining (relative to pK16) (TK10 cells): 0.98

B3: Mab1.10.2: human anti-GPNMB antibody; VH SEQ ID NO: 2, VL SEQ ID NO: 11 (antibody, listed as Homo sapiens, V domains shown)
VH: QVQLQESGPGLVKPSETLSLTCTVSGDSISNYYWSWIRQPPGKGLEWIGYFYYSGSTNYNPSLKSRVTISVDTSKNQFSLKLSSVTAADTAVYYCARDRGWADYWGQGTLVTVSSA
VL: EIVLTQSPGTLSLSPGERATLSCRTSQSISSSYLAWYQQKPGQVPRLLIYGASSRATGIPDRFSGSGSGTDFTLTISRLEPEDFAVYYCQQYGSSITFGQGTRLEIKR
Kd (GPNMB [1]): 118 nM | ka (GPNMB [1]): 3955 M⁻¹ s⁻¹ | kd (GPNMB [1]): 0.000466 s⁻¹

B4: Mab2.22.1: human anti-GPNMB antibody; VH SEQ ID NO: 164, VL SEQ ID NO: 173 (antibody, listed as Homo sapiens, V domains shown)
VH: QVQLEQSGPGLVKPSQNLSLTCTVSGGSISSGGYFWSWIRQHPGKGLEWIGYIYYSGNTYYNPSLKSRVTISVDTSKNQFSLKLSSVTAADTAVYYCARDYYYDTSGFSYRYDWYYGMDVWGQGTTVTVSSA
VL: DIQLTQSPSSLSASVGDRVTITCRASQGIRNDLGWYQQKPGKAPKRLIYAASSLQNGVPSRFSGSGSGTEFTLTISSLQPEDFATYYCLQHNTYPAFGQGTKVEIKR
Bin (GPNMB [3]): Bin 1 | staining of tissue specimens [4]: Positive staining | Geo Mean Ratio of anti-GPNMB Staining (relative to pK16) (TK10 cells): 1.10
